Read-outs that look alike come from different tables or passages of the source. Values belong to the binder of their own block, whether it stands above or below them.
B2: MukB (natural protein, Escherichia coli, UniProt P22523 1-1486, looked up)
chain: MIERGKFRSLTLINWNGFFARTFDLDELVTTLSGGNGAGKSTTMAAFVTALIPDLTLLHFRNTTEAGATSGSRDKGLHGKLKAGVCYSMLDTINSRHQRVVVGVRLQQVAGRDRKVDIKPFAIQGLPMSVQPTQLVTETLNERQARVLPLNELKDKLEAMEGVQFKQFNSITDYHSLMFDLGIIARRLRSASDRSKFYRLIEASLYGGISSAITRSLRDYLLPENSGVRKAFQDMEAALRENRMTLEAIRVTQSDRDLFKHLISEATNYVAADYMRHANERRVHLDKALEFRRELHTSRQQLAAEQYKHVDMARELAEHNGAEGDLEADYQAASDHLNLVQTALRQQEKIERYEADLDELQIRLEEQNEVVAEAIERQQENEARAEAAELEVDELKSQLADYQQALDVQQTRAIQYNQAIAALNRAKELCHLPDLTADCAAEWLETFQAKELEATEKMLSLEQKMSMAQTAHSQFEQAYQLVVAINGPLARNEAWDVARELLREGVDQRHLAEQVQPLRMRLSELEQRLREQQEAERLLADFCKRQGKNFDIDELEALHQELEARIASLSDSVSNAREERMALRQEQEQLQSRIQSLMQRAPVWLAAQNSLNQLSEQCGEEFTSSQDVTEYLQQLLEREREAIVERDEVGARKNAVDEEIERLSQPGGSEDQRLNALAERFGGVLLSEIYDDVSLEDAPYFSALYGPSRHAIVVPDLSQVTEHLEGLTDCPEDLYLIEGDPQSFDDSVFSVDELEKAVVVKIADRQWRYSRFPEVPLFGRAARESRIESLHAEREVLSERFATLSFDVQKTQRLHQAFSRFIGSHLAVAFESDPEAEIRQLNSRRVELERALSNHENDNQQQRIQFEQAKEGVTALNRILPRLNLLADDSLADRVDEIRERLDEAQEAARFVQQFGNQLAKLEPIVSVLQSDPEQFEQLKEDYAYSQQMQRDARQQAFALTEVVQRRAHFSYSDSAEMLSGNSDLNEKLRERLEQAEAERTRAREALRGHAAQLSQYNQVLASLKSSYDTKKELLNDLQRELQDIGVRADSGAEERARIRRDELHAQLSNNRSRRNQLEKALTFCEAEMDNLTRKLRKLERDYFEMREQVVTAKAGWCAVMRMVKDNGVERRLHRRELAYLSADDLRSMSDKALGALRLAVADNEHLRDVLRMSEDPKRPERKIQFFVAVYQHLRERIRQDIIRTDDPVEAIEQMEIELSRLTEELTSREQKLAISSRSVANIIRKTIQREQNRIRMLNQGLQNVSFGQVNSVRLNVNVRETHAMLLDVLSEQHEQHQDLFNSNRLTFSEALAKLYQRLNPQIDMGQRTPQTIGEELLDYRNYLEMEVEVNRGSDGWLRAESGALSTGEAIGTGMSILVMVVQSWEDESRRLRGKDISPCRLLFLDEAARLDARSIATLFELCERLQMQLIIAAPENISPEKGTTYKLVRKVFQNTEHVHVVGLRGFAPQLPETLPGTDEAPSQAS

Legend:
MukB [1] = target: B2; assay: co-purification
cross-linking = target: the molecule itself; assay: cross-linking
MukB [2] = target: B2; assay: cross-linking
MukB [3] = target: B2; assay: cross-linking; remark: listed apart in the source

B1: acyl carrier protein (AcpP) (natural protein, E. coli (endogenous in BL21(DE3)), UniProt P0A6A8 1-78, looked up)
chain: MSTIEERVKKIIGEQLGVKQEEVTNNASFVEDLGADSLDTVELVMALEEEFDTEIPDEEAEKITTVQAAIDYINGHQA
stoichiometry N (MukB [1]): 1 AcpP:MukB

Binder: B2
binding result (cross-linking): binds

More lines, now with the values ahead:

binding result (MukB [2]): binds
B3: ParC subunit of topoisomerase IV (natural protein, Escherichia coli, UniProt P0AFI2 1-752, looked up)
chain: MSDMAERLALHEFTENAYLNYSMYVIMDRALPFIGDGLKPVQRRIVYAMSELGLNASAKFKKSARTVGDVLGKYHPHGDSACYEAMVLMAQPFSYRYPLVDGQGNWGAPDDPKSFAAMRYTESRLSKYSELLLSELGQGTADWVPNFDGTLQEPKMLPARLPNILLNGTTGIAVGMATDIPPHNLREVAQAAIALIDQPKTTLDQLLDIVQGPDYPTEAEIITSRAEIRKIYENGRGSVRMRAVWKKEDGAVVISALPHQVSGARVLEQIAAQMRNKKLPMVDDLRDESDHENPTRLVIVPRSNRVDMDQVMNHLFATTDLEKSYRINLNMIGLDGRPAVKNLLEILSEWLVFRRDTVRRRLNYRLEKVLKRLHILEGLLVAFLNIDEVIEIIRNEDEPKPALMSRFGLTETQAEAILELKLRHLAKLEEMKIRGEQSELEKERDQLQGILASERKMNNLLKKELQADAQAYGDDRRSPLQEREEAKAMSEHDMLPSEPVTIVLSQMGWVRSAKGHDIDAPGLNYKAGDSFKAAVKGKSNQPVVFVDSTGRSYAIDPITLPSARGQGEPLTGKLTLPPGATVDHMLMESDDQKLLMASDAGYGFVCTFNDLVARNRAGKALITLPENAHVMPPVVIEDASDMLLAITQAGRMLMFPVSDLPQLSKGKGNKIINIPSAEAARGEDGLAQLYVLPPQSTLTIHVGKRKIKLRPEELQKVTGERGRRGTLMRGLQRIDRVEIDSPRRASSGDSEE

binding result (MukB [3]): binds
B4: MukF (natural protein, Escherichia coli, UniProt P60293 1-440, looked up)
chain: MSEFSQTVPELVAWARKNDFSISLPVDRLSFLLAVATLNGERLDGEMSEGELVDAFRHVSDAFEQTSETIGVRANNAINDMVRQRLLNRFTSEQAEGNAIYRLTPLGIGITDYYIRQREFSTLRLSMQLSIVAGELKRAADAAEEGGDEFHWHRNVYAPLKYSVAEIFDSIDLTQRLMDEQQQQVKDDIAQLLNKDWRAAISSCELLLSETSGTLRELQDTLEAAGDKLQANLLRIQDATMTHDDLHFVDRLVFDLQSKLDRIISWGQQSIDLWIGYDRHVHKFIRTAIDMDKNRVFAQRLRQSVQTYFDEPWALTYANADRLLDMRDEEMALRDEEVTGELPEDLEYEEFNEIREQLAAIIEEQLAVYKTRQVPLDLGLVVREYLSQYPRARHFDVARIVIDQAVRLGVAQADFTGLPAKWQPINDYGAKVQAHVIDKY
